The term EC50 denotes the concentration giving half of the maximal effect. Usually Kd stands for the equilibrium constant for the complex coming apart. A lower Kd goes with a tighter complex.

Assay [1] has as its target T1, CD22 on CD22+ Daudi cells and on B cells within PBMCs (human, UniProt P20273 20-847).
T1 construct: whole, on cells; The target was presented on human cells; also called human CD22
As to the kind of experiment: ELISA on CD22+ Daudi cells (FIG. 2); reference hLL2. For orientation: An ELISA detects its analyte on a solid surface through an enzyme-linked reagent.

For assay [2], the target named is T1, CD22 on CD22+ Daudi cells and on B …. As to the kind of experiment: flow cytometry (MFI) on CD22+ Daudi cells. On the procedure:
(§1) FIG. 3. […] Binding activity at indicated concentrations is given as the MFI. Measurements were performed in triplicate; standard deviations are shown as bars.
(§2) Cells were pelleted at 200 g at 4° C. for 5 min and washed twice with 500 μl of FACS buffer. For detection of bound antibodies, cells were incubated with saturating amounts of FITC conjugated F(ab) Fragment goat anti-Human IgG, Fc specific (13 μg/ml; Jackson Immuno Research, West Grove, Pa.) for 45 min at 4° C. and washed again with 500 μl of FACS buffer. Stained cells were analyzed on a FACSCAN™ Flow Cytometer (BD Bioscience, San Jose, Calif.), and median fluorescence intensity (MFI) was calculated using […]™ software (BD Bioscience).
For orientation: A flow cytometer gives signals particle by particle.

The target is the same in assay [3]. As to the kind of experiment: flow cytometry on CD22+ Daudi cells; reference hLL2 IgG. As to the method: as §1, §2
Assay [4] shares this target. As to the kind of experiment: flow cytometry on CD22+ Daudi cells, MFI, FITC anti-human Fc detection. As to the method:
as §1, §2

The target is the same in assay [5]. As to the kind of experiment: ELISA on CD22+ Daudi cells.

B1: humanized RFB4 (hRFB4) anti-CD22 antibody, IgG (antibody, V domains shown)
VH: QVQLVQSGAEVKKPGSSVKVSCKASGFTFSIYDMSWVRQAPGQGLEWVAYISSGGGTTYYPDTVKGRFTITADESTNTAYMELSSLRSEDTAFYFCARHSGYGSSYGVLFAYWGQGTLVTVSS
VL: DIQLTQSPSSLSASVGDRVTISCRASQDISNYLNWYQQKPGKAPKLLIYYTSILHSGVPSRFSGSGSGTDYTFTISSLQPEDIATYYCQQGNTLPWTFGGGTKVQIKR
notes: RFB4 CDRs were inserted into the FR and constant regions of hLL2; also called hRFB4 IgG
As to B1, in assay [1], the “fold higher binding affinity than hLL2” value stood at 10 fold. The EC50 in assay [2] came to 0.055 µg/mL; in assay [4], 0.4 nM. The “fold higher affinity (EC50) than hLL2” value in assay [3] worked out at 19 fold.

B2: humanized anti-CD22 LL2 antibody (hLL2, epratuzumab), IgG (antibody, V domains shown)
VH: QVQLQQSGAEVKKPGSSVKVSCKASGYTFTSYWLHWVRQAPGQGLEWIGYIYPRNDYTEYNQNFKDKATITADESTNTAYMELSSLRSEDTAFYFCARRDITTFYWGQGTTVTVSS
VL: DIQLTQSPSSLSASVGDRVTMSCKSSQSVLYSANHKNYLAWYQQKPGKAPKLLIYWASTRESGVPSRFSGSGSGTDFTFTISSLQPEDIATYYCHQYLSSWTFGGGTKVQIKR
notes: Tested as IgG with human constant regions; also called hLL2 IgG
B2 yielded a Kd in assay [5] of 7.6 nM. Further, the EC50 in assay [2] amounted to 1.03 µg/mL; in assay [4] it was 6.9 nM.

The values above are taken from patent US20160376366A1 (IMMUNOMEDICS, published 2016).
